The values that follow come from the supplement of paper PMC5998384.

Data set [1] has as its system HeLa Kyoto. The data set can be described thus: solubility in G1/S (NP-40 vs SDS abundance) (log2 ratio); higher = more soluble. The conditions noted are these: cell cycle stage: G1/S.
Data set [2] concerns HeLa Kyoto. The data set is described as follows: melting temperature (median over replicates), in situ; higher = more thermally stable.
Data set [3] deals with HeLa Kyoto. The data set is described as follows: solubility change mitosis vs G1/S (difference of NP-40 vs SDS log2 ratios) (log2 ratio difference); higher = more soluble in mitosis.
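For melting temperature (median over replicates), in situ in this document: HeLa Kyoto cells synchronized by double thymidine or nocodazole block, proteins quantified by TMT10plex mass spectrometry, three independent biological replicates.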
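For solubility change mitosis vs G1/S (difference of NP-40 vs SDS log2 ratios) in this document: synchronized HeLa Kyoto cells (double thymidine block for G1/S, nocodazole release for mitosis), protein amounts in NP-40 versus SDS lysates quantified by mass spectrometry, three biological replicates.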
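For solubility in G1/S (NP-40 vs SDS abundance) in this document: HeLa Kyoto cells arrested at G1/S by double thymidine block, proteins quantified by TMT10plex mass spectrometry in mild NP-40 versus SDS extracts, three biological replicates.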

In the case of “MRRAWILLTLGLVACVSAESRAELTSDKDMYLDNSSIEEASGVYPIDDDDYASASGSGADEDVESPELTTSRPLPKILLTSAAPKVETTTLNIQNKIPAQTKSPEETDKEKVHLSDSERKMDPAEEDTNVYTEKHSDSLFKRTEVLAAVIAGGVIGFLFAIFLILLLVYRMRKKDEGSYDLGERKPSSAAYQKAPTKEFYA [SDC2]”, the “solubility in G1/S (log2)” value in the data set on HeLa Kyoto [1] was -0.422. Besides, the melting temperature in the data set with HeLa Kyoto [2] (cell cycle stage: G1/S) turned out to be 55.6 °C; with HeLa Kyoto [2] (cell cycle stage: mitosis), 59.2 °C. Besides, the “solubility change mitosis (log2)” value in the data set on HeLa Kyoto [3] was -0.902.

As for “MSAARESHPHGVKRSASPDDDLGSSNWEAADLGNEERKQKFLRLMGAGKKEHTGRLVIGDHKSTSHFRTGEEDKKINEELESQYQQSMDSKLSGRYRRHCGLGFSEVEDHDGEGDVAGDDDDDDDDSPDPESPDDSESDSESEKEESAEELQAAEHPDEVEDPKNKKDAKSNYKMMFVKSSGS [SMAP]”, the “solubility in G1/S (log2)” value with HeLa Kyoto [1] stood at 0.338. This sequence registered a melting temperature in the data set with HeLa Kyoto [2] (cell cycle stage: G1/S) of 55 °C. Further, the “solubility change mitosis (log2)” value in the data set on HeLa Kyoto [3] amounted to 0.413.

Take “MSDKPDMAEIEKFDKSKLKKTETQEKNPLPSKETIEQEKQAGES [TMSB4X]”: in the data set on HeLa Kyoto [1], the “solubility in G1/S (log2)” value was -0.978. The results for the melting temperature in the data set with HeLa Kyoto [2] (cell cycle stage: G1/S) and with HeLa Kyoto [2] (cell cycle stage: mitosis) were 52.9 °C and 50.4 °C, respectively. For the same sequence, the “solubility change mitosis (log2)” value in the data set with HeLa Kyoto [3] was found to be 0.302.

Take “MSDLEDDETPQLSAHALAALQEFYAEQKQQIEPGEDDKYNIGIIEENWQLSQFWYSQETALQLAQEAIAAVGEGGRIACVSAPSVYQKLRELCRENFSIYIFEYDKRFAMYGEEFIFYDYNNPLDLPERIAAHSFDIVIADPPYLSEECLRKTSETVKYLTRGKILLCTGAIMEEQAAELLGVKMCTFVPRHTRNLANEFRCYVNYDSGLDCGI [N6AMT2]”: in the data set with HeLa Kyoto [1], the “solubility in G1/S (log2)” value was -0.331. Also, the melting temperature with HeLa Kyoto [2] (cell cycle stage: mitosis) was 50.6 °C. Further, the “solubility change mitosis (log2)” value in the data set on HeLa Kyoto [3] came to 0.0973.

With “MSGSVLFTAGERWRCFLTPSRSSLYWALHNFCCRKKSTTPKKITPNVTFCDENAKEPENALDKLFSSEQQASILHVLNTASTKELEAFRLLRGRRSINIVEHRENFGPFQNLESLMNVPLFKYKSTVQVCNSILCPKTGREKRKSPENRFLRKLLKPDIERERLKAVNSIISIVFGTRRIAWAHLDRKLTVLDWQQSDRWSLMRGIYSSSVYLEEISSIISKMPKADFYVLEKTGLSIQNSSLFPILLHFHIMEAMLYALLNKTFAQDGQHQVLSMNRNAVGKHFELMIGDSRTSGKELVKQFLFDSILKADPRVFFPSDKIVHYRQMFLSTELQRVEELYDSLLQAIAFYELAVFDSQP [TEFM]”, the “solubility in G1/S (log2)” value in the data set with HeLa Kyoto [1] was -0.375. For the same sequence, the melting temperature with HeLa Kyoto [2] (cell cycle stage: G1/S) came to 50.9 °C; in the data set with HeLa Kyoto [2] (cell cycle stage: mitosis) it was 49.1 °C. In the data set with HeLa Kyoto [3], the “solubility change mitosis (log2)” value came to 0.119.

On to “MSLKMDNRDVAGKANRWFGVAPPKSGKMNMNILHQEELIAQKKREIEAKMEQKAKQNQVASPQPPHPGEITNAHNSSCISNKFANDGSFLQQFLKLQKAQTSTDAPTSAPSAPPSTPTPSAGKRSLLISRRTGLGLASLPGPVKSYSHAKQLPVAHRPSVFQSPDEDEEEDYEQWLEIKVSPPEGAETRKVIEKLARFVAEGGPELEKVAMEDYKDNPAFAFLHDKNSREFLYYRKKVAEIRKEAQKSQAASQKVSPPEDEEVKNLAEKLARFIADGGPEVETIALQNNRENQAFSFLYEPNSQGYKYYRQKLEEFRKAKASSTGSFTAPDPGLKRKSPPEALSGSLPPATTCPASSTPAPTIIPAPAAPGKPASAATVKRKRKSRWGPEEDKVELPPAELVQRDVDASPSPLSVQDLKGLGYEKGKPVGLVGVTELSDAQKKQLKEQQEMQQMYDMIMQHKRAMQDMQLLWEKAVQQHQHGYDSDEEVDSELGTWEHQLRRMEMDKTREWAEQLTKMGRGKHFIGDFLPPDELEKFMETFKALKEGREPDYSEYKEFKLTVENIGYQMLMKMGWKEGEGLGSEGQGIKNPVNKGTTTVDGAGFGIDRPAELSKEDDEYEAFRKRMMLAYRFRPNPLNNPRRPYY [SUGP1]”, for which the “solubility in G1/S (log2)” value in the data set with HeLa Kyoto [1] stood at 0.221. Besides, the melting temperature with HeLa Kyoto [2] (cell cycle stage: G1/S) stood at 47.3 °C; in the data set with HeLa Kyoto [2] (cell cycle stage: mitosis) it was 50.8 °C. Also, the “solubility change mitosis (log2)” value in the data set on HeLa Kyoto [3] is 0.255.

For the sequence “MSLVIRNLQRVIPIRRAPLRSKIEIVRRILGVQKFDLGIICVDNKNIQHINRIYRDRNVPTDVLSFPFHEHLKAGEFPQPDFPDDYNLGDIFLGVEYIFHQCKENEDYNDVLTVTATHGLCHLLGFTHGTEAEWQQMFQKEKAVLDELGRRTGTRLQPLTRGLFGGS [YBEY]”, the “solubility in G1/S (log2)” value in the data set with HeLa Kyoto [1] was -0.21. The values for the melting temperature with HeLa Kyoto [2] (cell cycle stage: G1/S) and with HeLa Kyoto [2] (cell cycle stage: mitosis) were 45.4 °C and 49.7 °C, respectively. In addition, the “solubility change mitosis (log2)” value in the data set with HeLa Kyoto [3] worked out at 0.0965.

Take “MSQAEFEKAAEEVRHLKTKPSDEEMLFIYGHYKQATVGDINTERPGMLDFTGKAKWDAWNELKGTSKEDAMKAYINKVEELKKKYGI [DBI]”: the “solubility in G1/S (log2)” value with HeLa Kyoto [1] is -0.236. The melting temperature turned out to be 53.7 °C in the data set with HeLa Kyoto [2] (cell cycle stage: G1/S) and 53.8 °C in the data set with HeLa Kyoto [2] (cell cycle stage: mitosis). In addition, the “solubility change mitosis (log2)” value in the data set with HeLa Kyoto [3] amounted to 0.148.
